Measurements taken from paper PMC4841919 (Neurobiology of aging, 2016).

Legend:
[1] = molecular target: striatal-enriched tyrosine phosphatase STEP61 (endogenous, rat brain) (rat (endogenous in Sprague-Dawley rat brain)); assay: non-reducing SDS-PAGE and immunoblot
[2] = molecular target: the molecule itself; assay: non-reducing SDS-PAGE and immunoblot

Chain of striatal-enriched tyrosine phosphatase STEP61 (endogenous, rat brain) (enzyme) (P35234 whole entry): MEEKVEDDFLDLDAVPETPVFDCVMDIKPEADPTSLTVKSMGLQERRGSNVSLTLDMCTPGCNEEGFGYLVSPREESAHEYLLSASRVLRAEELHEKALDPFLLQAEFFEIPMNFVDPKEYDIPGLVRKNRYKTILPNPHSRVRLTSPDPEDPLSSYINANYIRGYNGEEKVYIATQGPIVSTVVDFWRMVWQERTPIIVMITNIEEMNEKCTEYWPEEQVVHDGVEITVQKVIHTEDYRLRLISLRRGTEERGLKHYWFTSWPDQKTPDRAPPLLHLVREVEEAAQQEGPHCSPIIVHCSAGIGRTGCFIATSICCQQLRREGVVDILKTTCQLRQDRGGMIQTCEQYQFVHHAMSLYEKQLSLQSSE

Row | Molecule | dimer band after N-acetyl cysteine, percent of untreated aged control, cortex [1] | fold increase of the dimer band in aged rats, cortex [1] [fold] | fold increase of the dimer band in aged rats, hippocampus [1] [fold] | stoichiometry N [1] | stoichiometry N [2]
1 | striatal-enriched tyrosine phosphatase STEP61 (endogenous, rat brain) (enzyme) | 59.4 % of control | 6.2 | 5.9 | 2 | –
2 | V5- and myc-tagged STEP61 (wild type) (enzyme, UniProt P54830-1 1-541, looked up) MCCSERLLGLPQPVEMEAPDEAEGLPSKQKEMPPPPPPSPPSEPAQKLPPQGAGSHSLTVRSSLCLFAASQFLLACGVLWLSGHGHSWLQNTTDLISSSLTVLNHLGPVAWLGSGTWGIPSLLLVSLTVSLVIVTTLVWHLLKAPPEPPAPLPPEDRRQSVSRQPSFTYSEWMEEKVEDDFLDLDAVPETPVFDCVMDIKPETDPASLTVKSMGLQERRGSNVSLTLDMCTPGCNEEGFGYLVSPREESAHEYLLSASRVLRAEELHEKALDPFLLQAEFFEIPMNFVDPKEYDIPGLVRKNRYKTILPNPHSRVRLTSPDPEDPLSSYINANYIRGYSGEEKVYIATQGPIVSTVADFWRMVWQERTPIIVMITNIEEMNEKCTEYWPEEQVVHDGVEITVQKVIHTEDYRLRLISLRRGTEERSLKHYWFTSWPDQKTPDRAPPLLHLVREVEEAAQQEGPHCSPIIVHCSAGIGRTGCFIATSICCQQLRREGVVDILKTTCQLRQDRGGMIQTCEQYQFVHHAMSLYEKQLSLQSSE | – | – | – | – | ≥ 2
